Laboratory results reported in paper PMC6901024 (Journal of the American Chemical Society, 2019).

Biological target: the molecule itself
Test: SEC

B1: His6-FtmOx1-Y140F (enzyme)
chain: MTVDSKPQLQRLAADADVDRMCRLLEEDGAFILKGLLPFDVVESFNRELDVQMAIPPPKGERLLADKYPPHFKYVPNVATTCPTFRNTVLINPVIHAICEAYFQRTGDYWLSAAFLREIESGMPAQPFHRDDATHPLMHFQPLEAPPVSLSVIFPLTEFTEENGATEVILGSHRWTEVGTPERDQAVLATMDPGDVLIVRQRVVHAGGGNRTTAGKPRRVVLAYFNSVQLTPFETYRTMPREMVESMTVLGQRMLGWRTMKPSDPNIVGINLIDDKRLENVLQLKAADSPA
**Q.** Which “stoichiometry N” value does the source give for B1 here?
**A.** 2
